Data taken from a protein production outcome set (Wang et al. 2014).

Experiment: label from the status in PepcDB records

Sequence | protein production
TPLPHQLEVAQKVVEKMNGKAILADEVGLGKTVEAGLILKEYMIRGLAKKILILVPASLVSQWVKELQEKFLIPAVEQKKSYVWEQCDIVVSSIDTAKRSPHREIVLSIPYDLVIIDEAHKLKNSKTKNYEFVRNLVKKYCLLLTATPIQNRIEEIFNLVSLLKPGHL | failed
MRFVATGDWQLGMTAHYLSTEARPRFHRARLDAVKRIGEIAAEQSCDFVVVCGDVFESNQLDRAIISRTFEVLAAFTVPVVLLPGNHDPLDAASIYDSHAFTSRQPGHVHVLRDSEPFEVRPGVEIIGAPWFSKRPQGDLVAQATQNLAEAAPGKVRIIAGHGAVSTLDPDRESLATIDVDSLKTVLREDRAQFVALGDRHATYAVDERIWYSGAPEVTSRREDDPGNVLLVDIDAQSHASSVEKMHIGRWSYLVVEEDVNSDEDVSHLEQRLADIPDKDSTAVWLILRGTLSTAAKSRLDDILDHATDLFALVSLWERHTDIAVVAADEDFAGLGLSGYLQESLDELAETAAGEDLSASAAQDALGLLYRFARSGS | failed
NQLIRGRLVVGMVTACTVKPLFDALSAFHVAHPGIEITLTEDSSDRLVERVRAGAIDLALVGTATAPPDGLDAFPIISEGLVAAVPPGHPLAGRSRVTLAELGDHAIVCMPTGTGIRTVFDQACAAAGLRPDIALQASAPDAVADLAIRG | failed
MVAACKTMLTQIYEVATPAEAEAISVIGVDHVGVLVGDGAFPRELPVQKALAVMKMVRAPSVVSALFLSADVALIERMARELDPPIVHLGASSELLTPDLVVALRKSLPKTKFMRSVPVTGPEAVGVAQAYDGVVDWILLDSHRTGDVQIGAQGVTHDWSISRTIVESVRTPVILAGGLGPDNVKEAIRSVRPAGVDSKTRTDREGTHSKDLRKVEAFYRAATSG | failed
MMVAVFWISFLLLAYIYFGYPVCIRLLASARPLPVNKSGAYQPKVSILIAAYNEAKDIEATLRNKLALDYPREQLEILVVSDESEDGTDEIVQAVAADAPFPVKLFRQVPRQGKTAGLNMLKQHAEGEILAFSDANSEWDQQALKALVSNFNDPAVGYVTGKMVYVNPEGALIGDGCSAYMKYENWLRAQETLVGSVVGVDGGIDAMRKELHSELNADQLPDFVQPLKVVEQGYRVVYEPGALLKEEALSDGGSEFSMRVRVSLRALWALKDMKQLMSPANDPVFAWQLISHKLLRYAAFAPMITLAIAALYLAPVKGLYALAAIGYGLFLYFAWAGYQKESRGQSLSTMYALPYYFVLLNLASFKAFVAFAKGEKKVVWNPRKG | failed
MKLIKFVRNVVLFILTAIFLAFMLLVSYCMPHYSAAVISGVEVKRMNENENTPNNKEVKTLARDVYFVQTYDPKDQKSVTVYRNEDTRFSFPFYFKFNSADISALAQSLINQQVEVKYYGWRINLFNMFPNVIFLKPLKESTDISKPIFSWILYALLLMGFFISARSVCTLFKSKAH | failed
MKITTKGRYGLTITLELAKRIGDGPISLRSIAQDKNLSEHYLEQLIGPLRNAGIVKSIRGAHGGYVLNGDPEKITAGDIIRTLEGPIVLVESMEDEEAAQRELWTRMRNAVRDVLDQTTLSDLLKHSTDSELTDGYMFYI | not failed
SEEDDEVVAMIKELLDTRIRPTVQEDGGDVIYRGFEDGIVRLKLQGSCTSCPSSIITLKSGIQNMLQFYIPEVEGVEQV | not failed
MVPDPFRVGPWTSVREAARLMAQRRVGSLVVVEDGQVLGVVTSRDLRGAHPNRLVVDVLKGPPVAISPEASLLEAKRLMEAKGLERLLVMRDRKLLGILTQGTLAFALGQHFDPLTGLPRADLLRHHLESLLAQGKDPTLLFVDLDDFGRLNKENGHPFGDRVLKTLGQRLKGFAQDLGGEVYRYGGDEFALVFPHPRQALLPALPSLLSPLEVEGKRVGFSVGVAGGRRRQRRVSANPSATADDLLKLASLASTHAKRQGSGWAPAEALKAKEGAPEGVSSPKEPQSAWGDNRRAARGGGGPRSGGRGSGPTGP | failed
MATRFDVKTIVKDKRFWIASFIIVWAAGLQGHMMWLQKQESFKQKFGTIDEDDHK | failed
MSQVASLLIALPLISAFFVPVLKQIKKSLIFPYLTLITLLQTGIAGWVFYEVYTTGKPILIYAGGWRPPVGINLYIGPFAALFILIIAIVSFLTSLFSMRMVKVEPIDKYAMLFLLLMLGATGMIATGDIFNLFVFMEITAITAYALTAYNKTGEAAEASMKYMILGGIGSSFFLIGVALIYGVTGTLNMAQLAEFASAGKIMPVVAQVGLSLIIFGLAVEAELFPLNAWAPDAYQAAPHPITVMFSAFVVKAGLYAMARILYLLQKVNGWDSVLKLLLIMATLTVIFAELSALRQKDVKRMIAYSSIGQVGLIALAFSLGTQAGVDAGVFHMLNHAIVKTMMFLGVGYVGVMVGGTRIEDFRGLGKRMPLTALSLSVGAISTVGVPLFNVFWSKFRIIVATIQAGFVWPAVLVLFASVVEAVYYFRLLHVMWFAGEGERIKEGWIVVFLLLLALIIVGIGIYPTPVWEIVKRAGSDIFAVKVYINNVPLLGVVQ | failed
MRYERDMRGYGANPPDPKWPGGAHVAVQFVVNYEEGGENCVLHGDKASEAFLSEIVGAAPWVGQRHWNMESIYEYGARAGFWRLLRLFSESQVPVTCYGVASALARSPDQVTAMQDAGWEIASHGLRWIDYRDHSAEDERRDLEAAIKLHYEVTGQRPTGWYTGRTSVNTVRLVAEEGGFDYVSDTYDDELPYWFEHAGGTQLIIPYTLDANDMRFATPQGFNSGDQFFAYLKDSFDTLYAEGQAGRPRMMNIGLHCRLVGRPGRVAALKRFVDYVKSHDKVWLTRRIDIAKHWQENHPYKPAALRPSKMEFEIFVHTFGGVFEHSPWIAERAYELELGPAHDTAGGLHNALCRIFRSASETERLGVLNAHPDLAGKLAKARRLTAESTREQASAGLDALTDKERELFSKLNAAYVTTFGFPFIIAVKGKTKEEILAEFEARIGNSRGVEFETACKQVERIALLRLRDMLPQ | failed
MTDTQNRVAMGYIKGVFGIKGWLKIAANTEYSDSLLDYPEWHLVKDGKTISVTLEAGKVVNGELQVKFEGINDRDLAFSLRGYTIEIPREAFAPTEEDEYYWTDLVGMTVVNKDHTVLGKVSNLMETGANDVLMIDGEHGQILIPFVSQYIETVDTGSKTITADWGLDYLEHHHHHH | not failed
MKIKAVGAYSAKQPLEPMDITRREPGPNDVKIEIAYCGVCHSDLHQVRSEWAGTVYPCVPGHEIVGRVVAVGDQVEKYAPGDLVGVGCIVDSCKHCEECEDGLENYCDHMTGTYNSPTPDEPGHTLGGYSQQIVVHERYVLRIRHPQEQLAAVAPLLCAGITTYSPLRHWQAGPGKKVGVVGIGGLGHMGIKLAHAMGAHVVAFTTSEAKREAAKALGADEVVNSRNADEMAAHLKSFDFILNTVAAPHNLDDFTTLLKRDGTMTLVGAPATPHKSPEVFNLIMKRRAIAGSMIGGIPETQEMLDFCAEHGIVADIEMIRADQINEAYERMLRGDVKYRFVIDNRTLTD | not failed
DNDAIYYPVGDVDIERGGPALEVGEEDVLVARSFNEEDYVLDTIAQYPNDPTLGKLTFMIDLKNQQKDQNVADFNGVGKSKLTMSLGYKDGNYPSESQVPIYTSQDVTAKYAVKLRLKGELLVSGDEWMIDYVYAQLASLFQPYPPANFPEVFMCKGGMKLGTFDSFRRTCTFDITYDRSDLSFSQLYFNLFINLAGQKRENRVRLRIDKESYFELYEQSEEM | not failed
MDKHIIGENAGKLWRLLSTDVHRKWTLQEVKDATGFNDLEAASAIGWLAREDKIQFELEHHSTKDKNVFLYLMLNVYFLEHHHHHH | not failed
MSSMGDQRGTRVYVGNLTDKVKKDDLEGEFTKYGKLNSVWIAFNPPGFAF | failed
MQSDVVLGAAHWVYLLSVVAIILTMVLRANAVVPSVLGTFLVVLAFTGSPIQALVGIFTASFVAAKELFNIFLVITFMTALLNALKVLQADVRMVQPLRRVMTNGHASFLILAGCTYGLSLFFWPTPAVPLVCAILLPAAVAAGLPPLAGAMAIAIAGQGMALSSEYVIGVAPGISAKAAGAAVSAAVVADRALVLSVITGAIALVMTYLFMRKHIVPGDTALLAAWQARAQDGELERIEGSGSFDKAELARGASQPVKGGAEARLAGWSRAFALITPIAFLGVIALMALPRLVPGLPALRGGDAAALVGGVAFMLMMLATLAAEGPRRMLDVCPEHVTDGFVFAFRAMGSVLPIAGFFFIGAAETAAPILGLESGHAPGLLFDLISAAQHLIPENHYLVAFGVLLVGMVTGIDGSGFAGLPLTGTLSGALGPVVGIDPATLAAVGQMGAVWTGGGTLIAWSSLIAVAGFARVHVLDMVRALMLPVLLALSVSTIAAILIWS | failed
MEDGIENTSPFNGNGESGFFKLPDREILESFRLQKVFPDSPFGFPSGHVALTTALWGGASRVFNSRTAGRLAPMVVLLMAFSRMYLGRHFLGDVIGGAALGLTLLVVFTYFLKSPLKDDFFEKENFKLAFRQKNLFFYSAMFAVPVVFVSLSLISGEVAGFFLGTNTAYLLIIRKGLPEDEGSTGQRALRVFITLMMFGLSALVLDAGFGIIGIAGYPDDTLIEFLKSFIPAFTIWISVSICIKLGLYNIASTEQIE | failed
MKAFFSFVIRWVIPLLGLIALSLIIWFIGPLLEFLVPEGRRWALIIFIFALWIGYRVFCIIQARRNAAKVLQSLAADTPPDPDSVATAEELAALRQRMDEALALLKKAKLGGDERRNLYELPWYVIIGPPGSGKTTALVNSGLHFPLAAQLGAGAVRGVGGTRNCDWWFTDQAVLLDTAGRYTTQDSHATVDKAAWLGFLDLLKTQRSRRPIDGAFVAISLSDLLLGSEAERAAHAAAIRLRIQELYTQLGVRFPIYLMLTKLDLVPGFMEFFDSLSKEERAQVWGMTFALDDGKSGDSPLAHLPAELAALEQRLNERLVERLQQERDPARRDLIYGFPQQFAALKESLQSFLEGVFKPNAFEERVLLRGVYFTSGTQEGSPIDRLIGAMAQSMNLDRQHLARQTGTGRSYFIEKLFSAVAFAERGLVGVNPKVERRRKWIARGALAGTVALVLVVSTLWIISYRANQAYIAQVDQRVGPVRQDVQNLSPAQRDVLAVLPLLNATRHLAGDAPGWAEGLGLYQGDMLEAESASVYRKLLVAVFAPRLMTRIEEQLHSGGNSDFLYEGLKAYLMLADSEHYDPDFIKAWITLDWDHTLARDLPPEQRQALTGHLQALFEKHPPNARLDQRLIDDLRRQLQQLPVAQRVYDRVKRAKLPDGVPDFRLSEAGGRDAALVFTRKSGKPLSEPLSGLFTAKGYRQGFLLASLNQAGTLAEEQWVLGRDQADQQNVASLAADVRRLYFQDYLRQWDALLADIDFVPITSVAQAADVLRILSGPTSPLKKLLVAVAKETDLQQEERLLAAQGQKVEGGVDQLKQRLGNLLGQEQSANPAAVASSEDPVSAHFAELNSLVSKGEGEPAAIDGLLADMNALYVQVSAMVGASGDALLGEAKNQASAAAARVSLTAERQPPVVQGLVKSVVGSTTNTMMGGVRNQLNAAWVSEVVNVYRQSLSGRYPMSPGSSRDATLEDFGQFFGTGGVMDNYFRKYLQPYVNTSTTTWSWQPGAAQKLGISPGVLQTFQRASNIRDAFFRSSGGTQPAVRFELKPVAMDANISQFLLDLDGQQLSYDHGPSRPVAMQWPNPGSIGVVRLSIMPPSATGRSGITLDGPWAWFRLLEQSDLTATNSPDRFNLRLRVDGASISYELRASSAFNPFKSRVLSGFSLPERL | failed
GSSGSSGNWIDVRYDLEKIESLIQSIHIDTTLYTDSDFHPSCKVTAMNCFLLELQVILHEYSNMTLNETVRNVLYLANSTLSSNKNVAESGCKECEELEEKTFTEFLQSFIRIVQMFINTS | not failed
